Measurements published in publication PMC9458460, “Structural basis of 3′-end poly(A) RNA recognition by LARP1”.

Legend:
LARP1 LaM [1] = target: T1, LARP1 LaM (UniProt Q6PKG0-3 323-410); assay: ITC; 10 mM MES pH 6.3, 100 mM NaCl, 1 mM TCEP (HPLC and NMR buffer; ITC buffer not stated separately); ITC 293 K, NMR 25 C
LARP1 LaM [2] = target: T1, LARP1 LaM; assay: as above; remark: listed apart in the source
LARP1 LaM [3] = target: T1, LARP1 LaM; assay: crystal structure; 1.15 A; 10 mM MES pH 6.3, 100 mM NaCl, 1 mM TCEP (HPLC and NMR buffer; ITC buffer not stated separately); ITC 293 K, NMR 25 C
LARP1 LaM-RRM region = LARP1 LaM-RRM region (UniProt Q6PKG0-3 323-509); assay: ITC; 10 mM MES pH 6.3, 100 mM NaCl, 1 mM TCEP (HPLC and NMR buffer; ITC buffer not stated separately); ITC 293 K, NMR 25 C; details: protein: recombinant
[4] = target: LARP1 323-509 Y336A/F348A (UniProt Q6PKG0-3 323-509, Y336A;F348A); assay: as above; details: protein: recombinant
[5] = target: LARP1 323-509 Q333A/F348A (UniProt Q6PKG0-3 323-509, Q333A;F348A); assay: as above; details: protein: recombinant
LARP1 LaM Y336A/F348A = LARP1 LaM Y336A/F348A (UniProt Q6PKG0-3 323-410, Y336A;F348A); assay: as above
LARP1 LaM Q333A/F348A = LARP1 LaM Q333A/F348A (UniProt Q6PKG0-3 323-410, Q333A;F348A); assay: as above
LARP1 LaM Q333A = LARP1 LaM Q333A (UniProt Q6PKG0-3 323-410, Q333A); assay: as above
LARP1 LaM R345A = LARP1 LaM R345A (UniProt Q6PKG0-3 323-410, R345A); assay: as above

| Binder | binding result (LARP1 LaM [1]) | binding signal (LARP1 LaM [2]) | other results |
| --- | --- | --- | --- |
| AACAAA (ssRNA) [A2CA3] | binds |  |  |
| UUUUUU (ssRNA) [U6] |  | ~10 fold weaker than A6 |  |
| AAA (ssRNA) [A3] |  |  | binding result (LARP1 LaM [3]): binds |
| AAAAAA (ssRNA) [A6] | binds |  |  |
| AAAAAAAAAAAAAAAAAAAAAAAAA (ssRNA) [A25] |  |  | Kd (LARP1 LaM-RRM region): ~200 nM; Kd (LARP1 LaM [1]): < 1000 nM; binding result [4]: no binding; binding result [5]: no binding |
| AAAA (ssRNA) [A4] | binds |  | binding result (LARP1 LaM Y336A/F348A): no binding; binding result (LARP1 LaM Q333A/F348A): no binding; binding signal (LARP1 LaM Q333A): ~20 fold weaker than wild type; binding signal (LARP1 LaM R345A): ~2 fold weaker than wild type |
| AAAUAA (ssRNA) [A3UA2] | binds |  |  |
| GGGGGG (ssRNA) [G6] |  | ~10 fold weaker than A6 |  |
| AAAAAA (ssRNA, 3' phosphate) [A5A(p)] |  | ~200 fold weaker than A6 |  |
| AAACAA (ssRNA) [A3CA2] | binds |  |  |
| ACAAAA (ssRNA) [ACA4] | binds |  |  |
| AAAAAAAAAAA (ssRNA) [A11] | binds |  |  |
| AAAACA (ssRNA) [A4CA] |  | ~10 fold weaker than A6 |  |
| CCCCCC (ssRNA) [C6] |  | > 200 fold weaker than A6 |  |
| AAAAAC (ssRNA) [A5C] |  | ~10 fold weaker than A6 |  |
